# Data published in the supplement of paper PMC11316812.
# ± gives the standard deviation of the averaged measurements.
# How the values were obtained:
# [1] = test system: hTERT-HMEC; assay: percentage of EdU-negative (G0-arrested) nuclei per well, 72 h; higher = more G0 arrest; details: reference: sequence is the full UniProt precursor, the tested protein was the secreted form or ectodomain
# [2] = test system: MCF7; assay: as above; details: reference: sequence is the full UniProt precursor, the tested protein was the secreted form or ectodomain
# [3] = protein concentration 0.03125 µM
# [4] = protein concentration 0.3125 µM
# [5] = protein concentration 0.010165 µM
# [6] = protein concentration 0.10165 µM
# [7] = protein concentration 0.0357143 µM
# [8] = protein concentration 0.357143 µM
# [9] = protein concentration 0.0295 µM
# [10] = protein concentration 0.0225 µM
# 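Note: secreted proteins added to cultured cells, EdU pulse at the end, nuclei found by Hoechst imaging, EdU status from nuclear versus surrounding ring intensity ratio, PBS as neutral control.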
sequence,measurement,setting,value
MLFSALLLEVIWILAADGGQHWTYEGPHGQDHWPASYPECGNNAQSPIDIQTDSVTFDPDLPALQPHGYDQPGTEPLDLHNNGHTVQLSLPSTLYLGGLPRKYVAAQLHLHWGQKGSPGGSEHQINSEATFAELHIVHYDSDSYDSLSEAAERPQGLAVLGILIEVGETKNIAYEHILSHLHEVRHKDQKTSVPPFNLRELLPKQLGQYFRYNGSLTTPPCYQSVLWTVFYRRSQISMEQLEKLQGTLFSTEEEPSKLLVQNYRALQPLNQRMVFASFIQAGSSYTTGEMLSLGVGILVGCLCLLLAVYFIARKIRKKRLENRKSVVFTSAQATTEA [Q9ULX7],percentage of EdU-negative,[1]; [3],4.94 ± 0.17%
same,percentage of EdU-negative,[1]; [4],4.94 ± 0.42%
same,percentage of EdU-negative,[2]; [3],24.3 ± 0.34%
same,percentage of EdU-negative,[2]; [4],24.31 ± 0.24%
MLGARLRLWVCALCSVCSMSVLRAYPNASPLLGSSWGGLIHLYTATARNSYHLQIHKNGHVDGAPHQTIYSALMIRSEDAGFVVITGVMSRRYLCMDFRGNIFGSHYFDPENCRFQHQTLENGYDVYHSPQYHFLVSLGRAKRAFLPGMNPPPYSQFLSRRNEIPLIHFNTPIPRRHTRSAEDDSERDPLNVLKPRARMTPAPASCSQELPSAEDNSPMASDPLGVVRGGRVNTHAGGTGPEGCRPFAKFI [Q9GZV9],percentage of EdU-negative,[1]; [5],4.81 ± 0.08%
same,percentage of EdU-negative,[1]; [6],12.96 ± 0.081%
same,percentage of EdU-negative,[2]; [5],24 ± 0.7%
same,percentage of EdU-negative,[2]; [6],27.2 ± 0.45%
MLGIWTLLPLVLTSVARLSSKSVNAQVTDINSKGLELRKTVTTVETQNLEGLHHDGQFCHKPCPPGERKARDCTVNGDEPDCVPCQEGKEYTDKAHFSSKCRRCRLCDEGHGLEVEINCTRTQNTKCRCKPNFFCNSTVCEHCDPCTKCEHGIIKECTLTSNTKCKEEGSRSNLGWLCLLLLPIPLIVWVKRKEVQKTCRKHRKENQGSHESPTLNPETVAINLSDVDLSKYITTIAGVMTLSQVKGFVRKNGVNEAKIDEIKNDNVQDTAEQKVQLLRNWHQLHGKKEAYDTLIKDLKKANLCTLAEKIQTIILKDITSDSENSNFRNEIQSLV,percentage of EdU-negative,[1]; [7],5.07 ± 0.45%
same,percentage of EdU-negative,[1]; [8],5.88 ± 1.1%
same,percentage of EdU-negative,[2]; [7],23.4 ± 1.9%
same,percentage of EdU-negative,[2]; [8],26.6 ± 0.71%
MLGLPWKGGLSWALLLLLLGSQILLIYAWHFHEQRDCDEHNVMARYLPATVEFAVHTFNQQSKDYYAYRLGHILNSWKEQVESKTVFSMELLLGRTRCGKFEDDIDNCHFQESTELNNTFTCFFTISTRPWMTQFSLLNKTCLEGFH [Q9H4G1],percentage of EdU-negative,[1]; [9],4.64 ± 0.079%
same,percentage of EdU-negative,[1]; protein concentration 0.295 µM,4.42 ± 0.36%
same,percentage of EdU-negative,[2]; [9],27.1 ± 2.6%
same,percentage of EdU-negative,[2]; protein concentration 0.295 µM,28.28 ± 0.082%
MLGPCMLLLLLLLGLRLQLSLGIIPVEEENPDFWNREAAEALGAAKKLQPAQTAAKNLIIFLGDGMGVSTVTAARILKGQKKDKLGPEIPLAMDRFPYVALSKTYNVDKHVPDSGATATAYLCGVKGNFQTIGLSAAARFNQCNTTRGNEVISVMNRAKKAGKSVGVVTTTRVQHASPAGTYAHTVNRNWYSDADVPASARQEGCQDIATQLISNMDIDVILGGGRKYMFRMGTPDPEYPDDYSQGGTRLDGKNLVQEWLAKRQGARYVWNRTELMQASLDPSVTHLMGLFEPGDMKYEIHRDSTLDPSLMEMTEAALRLLSRNPRGFFLFVEGGRIDHGHHESRAYRALTETIMFDDAIERAGQLTSEEDTLSLVTADHSHVFSFGGYPLRGSSIFGLAPGKARDRKAYTVLLYGNGPGYVLKDGARPDVTESESGSPEYRQQSAVPLDEETHAGEDVAVFARGPQAHLVHGVQEQTFIAHVMAFAACLEPYTACDLAPPAGTTDAAHPGRSVVPALLPLLAGTLLLLETATAP,percentage of EdU-negative,[1]; [10],5.09 ± 0.15%
same,percentage of EdU-negative,[1]; protein concentration 0.225 µM,5.14 ± 0.97%
same,percentage of EdU-negative,[2]; [10],27.28 ± 0.045%
same,percentage of EdU-negative,[2]; protein concentration 0.225 µM,29.68 ± 0.2%
MLGQVVTLILLLLLKVYQGKGCQGSADHVVSISGVPLQLQPNSIQTKVDSIAWKKLLPSQNGFHHILKWENGSLPSNTSNDRFSFIVKNLSLLIKAAQQQDSGLYCLEVTSISGKVQTATFQVFVFESLLPDKVEKPRLQGQGKILDRGRCQVALSCLVSRDGNVSYAWYRGSKLIQTAGNLTYLDEEVDINGTHTYTCNVSNPVSWESHTLNLTQDCQNAHQEFRFWPFLVIIVILSALFLGTLACFCVWRRKRKEKQSETSPKEFLTIYEDVKDLKTRRNHEQEQTFPGGGSTIYSMIQSQSSAPTSQEPAYTLYSLIQPSRKSGSRKRNHSPSFNSTIYEVIGKSQPKAQNPARLSRKELENFDVYS [Q9BZW8],percentage of EdU-negative,[1]; [10],5.21 ± 0.31%
same,percentage of EdU-negative,[1]; protein concentration 0.225 µM,6.56 ± 1.1%
same,percentage of EdU-negative,[2]; [10],25.82 ± 0.11%
same,percentage of EdU-negative,[2]; protein concentration 0.225 µM,26.1 ± 1.3%
MLGVLELLLLGAAWLAGPARGQNETEPIVLEGKCLVVCDSNPTSDPTGTALGISVRSGSAKVAFSAIRSTNHEPSEMSNRTMIIYFDQVLVNIGNNFDSERSTFIAPRKGIYSFNFHVVKVYNRQTIQVSLMLNGWPVISAFAGDQDVTREAASNGVLIQMEKGDRAYLKLERGNLMGGWKYSTFSGFLVFPL,percentage of EdU-negative,[1]; [10],5.16 ± 0.97%
same,percentage of EdU-negative,[1]; protein concentration 0.225 µM,5.71 ± 0.24%
same,percentage of EdU-negative,[2]; [10],24.7 ± 1.6%
same,percentage of EdU-negative,[2]; protein concentration 0.225 µM,24.9 ± 2.3%
